Measured values from publication PMC7337067, “Cryo-electron microscopic and X-ray crystallographic analysis of the light-driven proton pump proteorhodopsin reveals a pentameric assembly” (Journal of Structural Biology: X, 2020).

Biological target: the molecule itself
Test: crystal structure; 3D crystals of purified GPR, 50 mM MES pH 6, 25 mM MnCl2, 30% PEG 400; anisotropic diffraction to 4.44 Å; molecular replacement with pentameric HOT75BPR (PDB 4KLY); no atomic model built

B1: green-light absorbing proteorhodopsin (GPR), untagged (natural protein, γ-proteobacterium)
chain: MAGGGDLDASDYTGVSFWLVTAALLASTVFFFVERDRVSAKWKTSLTVSGLVTGIAFWHYMYMRGVWIETGDSPTVFRYIDWLLTVPLLICEFYLILAAATNVAGSLFKKLLVGSLVMLVFGYMGEAGIMAAWPAFIIGCLAWVYMIYELWAGEGKSACNTASPAVQSAYNTMMYIIIFGWAIYPVGYFTGYLMGDGGSALNLNLIYNLADFVNKILFGLIIWNVAVKESSNA
modifications: all-trans retinal covalently linked via a Schiff base to a conserved lysine
notes: N-terminal methionine added to the construct; theoretical MW of the monomer 25.5 kDa; Stop codon placed before the HRV 3C site and decahistidine-tag of pZUDF21, so no tag on the protein; Pentamer by crystallography and cryo-EM; also called untagged GPR; tag-free GPR; source: E. coli BL21(DE3) Rosetta2 (pZUDF21stop); purified from Cymal-5 solubilized membranes (Q Sepharose IEC, Superdex 200 SEC); …
B1 was tested. Which “stoichiometry N” value did it give?
Its value is 5.
